Assay results from paper PMC11231019, “A pH-dependent shift of redox cofactor specificity in a benzyl alcohol dehydrogenase of aromatoleum aromaticum EbN1” (Applied Microbiology and Biotechnology, 2024).

What was measured:
[1] = molecular target: T1, BaDH (benzyl alcohol dehydrogenase) (Aromatoleum aromaticum, UniProt Q5P459); assay: photometric NADH formation, […] nm; Michaelis-Menten with substrate inhibition fit; assay type: biochemical; details: substrate inhibition constant; NAD+, pH 8.0, 30 °C
T1 construct: gene adh; full-length, C-terminal Twin-Strep-tag kept, expressed in E. coli BL21(DE3), Strep-tactin purified; Zn (catalytic) and Zn/Fe (structural)
T1 sequence (Q5P459 1-362): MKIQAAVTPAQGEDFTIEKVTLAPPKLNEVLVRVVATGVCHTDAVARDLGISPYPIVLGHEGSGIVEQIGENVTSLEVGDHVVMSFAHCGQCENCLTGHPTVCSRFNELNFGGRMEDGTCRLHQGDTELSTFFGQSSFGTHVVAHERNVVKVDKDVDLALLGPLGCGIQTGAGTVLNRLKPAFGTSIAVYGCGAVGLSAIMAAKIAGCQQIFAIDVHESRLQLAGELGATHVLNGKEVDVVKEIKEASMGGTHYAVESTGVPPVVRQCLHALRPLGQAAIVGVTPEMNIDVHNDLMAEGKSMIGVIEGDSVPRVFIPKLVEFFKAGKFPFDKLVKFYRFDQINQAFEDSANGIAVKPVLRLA

[2] = substrate: O=Cc1ccccc1; assay: photometric NADH consumption; Michaelis-Menten with substrate inhibition fit; assay type: biochemical, Aromatoleum aromaticum; details: apparent, reduction with NADH, pH 7.0, 30 °C, Kis constrained to >= Km, kcat called overestimated by authors
Excerpt: photometric NADH consumption; Michaelis-Menten with substrate inhibition fit on BaDH (benzyl alcohol dehydrogenase)

[3] = substrate: NC(=O)C1=CN([C@@H]2O[C@H](COP(=O)(O)OP(=O)(O)OC[C@H]3O[C@@H](n4cnc5c(N)ncnc54)[C@H](OP(=O)(O)O)[C@@H]3O)[C@@H](O)[C@H]2O)C=CC1; assay: photometric NADPH consumption; Hill fit with substrate inhibition; assay type: biochemical, Aromatoleum aromaticum; details: apparent, fixed benzaldehyde, pH 5.5, 30 °C, cooperative, Hill n 1.38, Kis constrained to Km, kcat called overestimated by authors, varied: cofactor
Excerpt: photometric NADPH consumption; Hill fit with substrate inhibition on BaDH (benzyl alcohol dehydrogenase)

purified protein [4] = substrate: NC(=O)C1=CN([C@@H]2O[C@H](COP(=O)(O)OP(=O)(O)OC[C@H]3O[C@@H](n4cnc5c(N)ncnc54)[C@H](O)[C@@H]3O)[C@@H](O)[C@H]2O)C=CC1; assay: purified protein; assay type: biochemical, Aromatoleum aromaticum; details: apparent, fixed benzaldehyde, pH 7.0, 30 °C, extrapolated, saturation not reached, probably underestimated per authors (text: no reliable constants), varied: cofactor
purified protein [5] = substrate: OCc1ccccc1; assay: purified protein; assay type: biochemical, Aromatoleum aromaticum; details: apparent, oxidation with NAD+, pH 8.0, 30 °C, substrate inhibition, kcat called overestimated by authors
[6] = substrate: NC(=O)c1ccc[n+]([C@@H]2O[C@H](COP(=O)(O)OP(=O)(O)OC[C@H]3O[C@@H](n4cnc5c(N)ncnc54)[C@H](OP(=O)(O)O)[C@@H]3O)[C@@H](O)[C@H]2O)c1; assay: photometric NADPH formation; Hill fit with substrate inhibition; assay type: biochemical, Aromatoleum aromaticum; details: apparent, fixed benzyl alcohol, pH 6.5, 30 °C, cooperative, Hill n 2.44, Kis constrained to Km, kcat called overestimated by authors, varied: cofactor
Excerpt: photometric NADPH formation; Hill fit with substrate inhibition on BaDH (benzyl alcohol dehydrogenase)

[7] = substrate: NC(=O)c1ccc[n+]([C@@H]2O[C@H](COP(=O)(O)OP(=O)(O)OC[C@H]3O[C@@H](n4cnc5c(N)ncnc54)[C@H](O)[C@@H]3O)[C@@H](O)[C@H]2O)c1; assay: photometric NADH formation; Michaelis-Menten fit; assay type: biochemical, Aromatoleum aromaticum; details: apparent, fixed benzyl alcohol, pH 8.0, 30 °C, varied: cofactor
Excerpt: photometric NADH formation; Michaelis-Menten fit on BaDH (benzyl alcohol dehydrogenase)

**Q.** With `OCc1ccccc1` [BAlc, benzyl alcohol] as the molecule, how does the “Kis” value [1] read?
**A.** Its value is 4.37 mM.

B1: BaDH (benzyl alcohol dehydrogenase) (Aromatoleum aromaticum EbN1) (protein)
chain: T1 sequence (Q5P459 1-362)
notes: full-length, C-terminal Twin-Strep-tag kept, expressed in E. coli BL21(DE3), Strep-tactin purified; Zn (catalytic) and Zn/Fe (structural)
**Q.** B1 was tested. Which Km [2] did it give?
**A.** Its Km is 1780 µM.

**Q.** And the Vmax [2]?
**A.** Its Vmax is 345 µmol/min/mg.

**Q.** And the kcat [2]?
**A.** Its kcat is 239 s⁻¹.

**Q.** What about the kcat/Km [2] of the same molecule?
**A.** The kcat/Km was 134000 M⁻¹ s⁻¹.

**Q.** And the K0.5 [3]?
**A.** The K0.5 was 3.42 mM.

**Q.** What about the Vmax [3] of the same molecule?
**A.** Its Vmax is 159 µmol/min/mg.

**Q.** And the kcat [3]?
**A.** Its kcat is 110 s⁻¹.

**Q.** What about the kcat/Km [3] of the same molecule?
**A.** The kcat/Km was 32000 M⁻¹ s⁻¹.

**Q.** And the Km (purified protein [4])?
**A.** Its Km is 3690 µM.

**Q.** And the Vmax (purified protein [4])?
**A.** The Vmax was 320 µmol/min/mg.

**Q.** What about the kcat (purified protein [4]) of the same molecule?
**A.** The kcat was 222 s⁻¹.

**Q.** And the kcat/Km (purified protein [4])?
**A.** The kcat/Km was 60000 M⁻¹ s⁻¹.

**Q.** What about the Km (purified protein [5]) of the same molecule?
**A.** Its Km is 3620 µM.

**Q.** What about the Vmax (purified protein [5]) of the same molecule?
**A.** Its Vmax is 410 µmol/min/mg.

**Q.** What about the kcat (purified protein [5]) of the same molecule?
**A.** The kcat was 693 s⁻¹.

**Q.** And the kcat/Km (purified protein [5])?
**A.** The kcat/Km was 191000 M⁻¹ s⁻¹.

**Q.** What about the K0.5 [6] of the same molecule?
**A.** Its K0.5 is 2.39 mM.

**Q.** What about the Vmax [6] of the same molecule?
**A.** The Vmax was 54.1 µmol/min/mg.

**Q.** What about the kcat [6] of the same molecule?
**A.** The kcat was 37.5 s⁻¹.

**Q.** What about the kcat/Km [6] of the same molecule?
**A.** Its kcat/Km is 16000 M⁻¹ s⁻¹.

**Q.** What about the Km [7] of the same molecule?
**A.** Its Km is 1670 µM.

**Q.** What about the Vmax [7] of the same molecule?
**A.** Its Vmax is 84.2 µmol/min/mg.

**Q.** What about the kcat [7] of the same molecule?
**A.** The kcat was 58.4 s⁻¹.

**Q.** What about the kcat/Km [7] of the same molecule?
**A.** The kcat/Km was 35000 M⁻¹ s⁻¹.
